Test results published in article PMC8892516, “Intragenic suppressors unravel the role of the SCREAM ACT-like domain for bHLH partner selectivity in stomatal development” (Proceedings of the National Academy of Sciences of the …, 2022).

T1: GST-fused SCRM (1-494) (Arabidopsis thaliana, UniProt Q9LSE2 1-494)
T1 construct: SCREAM (SCRM, also known as ICE1), Arabidopsis thaliana, At3G26744, residues 1-494; pGEX-4T-1 with thrombin site; GST kept because the protein was loaded on anti-GST probes for BLI; also called SCREAM; ICE1; source: E. coli BL21, purified (glutathione agarose resin); not shown: GST, N-terminal, kept
T1 sequence (looked up): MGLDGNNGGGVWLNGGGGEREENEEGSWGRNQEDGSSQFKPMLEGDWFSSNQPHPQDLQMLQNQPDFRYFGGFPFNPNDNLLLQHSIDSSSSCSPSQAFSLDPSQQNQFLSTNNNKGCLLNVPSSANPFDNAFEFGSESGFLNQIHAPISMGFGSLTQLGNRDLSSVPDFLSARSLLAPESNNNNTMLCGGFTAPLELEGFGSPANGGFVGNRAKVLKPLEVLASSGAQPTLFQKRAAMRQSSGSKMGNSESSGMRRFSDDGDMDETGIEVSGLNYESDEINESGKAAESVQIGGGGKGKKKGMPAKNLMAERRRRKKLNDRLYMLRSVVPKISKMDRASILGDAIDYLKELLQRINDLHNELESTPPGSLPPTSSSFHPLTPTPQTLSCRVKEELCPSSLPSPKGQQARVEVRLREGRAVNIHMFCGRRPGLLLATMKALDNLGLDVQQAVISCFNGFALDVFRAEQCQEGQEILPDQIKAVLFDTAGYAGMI

T2: GST-fused SCRMΔC (1-404) (Arabidopsis thaliana, UniProt Q9LSE2 1-404)
T2 construct: SCREAM (SCRM, ICE1), Arabidopsis thaliana, At3G26744, residues 1-404 (lacks the C-terminal ACTL domain); pGEX-4T-1; GST kept because the protein was loaded on anti-GST probes for BLI; also called SCRM1ΔC; source: E. coli BL21, purified (glutathione agarose resin); not shown: GST, N-terminal, kept
T2 sequence (looked up): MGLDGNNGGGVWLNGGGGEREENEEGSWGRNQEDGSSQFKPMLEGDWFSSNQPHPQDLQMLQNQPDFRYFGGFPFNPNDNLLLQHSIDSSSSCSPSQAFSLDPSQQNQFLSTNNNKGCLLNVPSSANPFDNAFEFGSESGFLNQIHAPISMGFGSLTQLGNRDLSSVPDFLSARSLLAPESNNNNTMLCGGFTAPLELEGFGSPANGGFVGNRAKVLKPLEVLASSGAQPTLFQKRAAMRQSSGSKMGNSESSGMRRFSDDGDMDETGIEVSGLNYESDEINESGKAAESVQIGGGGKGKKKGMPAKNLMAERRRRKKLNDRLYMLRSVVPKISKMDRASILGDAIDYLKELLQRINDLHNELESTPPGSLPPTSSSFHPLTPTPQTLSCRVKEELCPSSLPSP

B1: SPCH (ΔNSPCH, 98-364) (domain or fragment, Arabidopsis thaliana, UniProt Q700C7 98-364, looked up)
chain: GQQKMSHVTVERNRRKQMNEHLTVLRSLMPCFYVKRGDQASIIGGVVEYISELQQVLQSLEAKKQRKTYAEVLSPRVVPSPRPSPPVLSPRKPPLSPRINHHQIHHHLLLPPISPRTPQPTSPYRAIPPQLPLIPQPPLRSYSSLASCSSLGDPPPYSPASSSSSPSVSSNHESSVINELVANSKSALADVEVKFSGANVLLKTVSHKIPGQVMKIIAALEDLALEILQVNINTVDETMLNSFTIKIGIECQLSAEELAQQIQQTFC
notes: the only recombinant SPCH with bHLH domain that the methods list is ΔNSPCH (98-364); source: E. coli BL21, purified (glutathione resin, thrombin, Superdex-200); not shown: GST, N-terminal, cleaved
B2: SCRMΔC (1-404), GST removed (domain or fragment, Arabidopsis thaliana, UniProt Q9LSE2 1-404, looked up)
chain: MGLDGNNGGGVWLNGGGGEREENEEGSWGRNQEDGSSQFKPMLEGDWFSSNQPHPQDLQMLQNQPDFRYFGGFPFNPNDNLLLQHSIDSSSSCSPSQAFSLDPSQQNQFLSTNNNKGCLLNVPSSANPFDNAFEFGSESGFLNQIHAPISMGFGSLTQLGNRDLSSVPDFLSARSLLAPESNNNNTMLCGGFTAPLELEGFGSPANGGFVGNRAKVLKPLEVLASSGAQPTLFQKRAAMRQSSGSKMGNSESSGMRRFSDDGDMDETGIEVSGLNYESDEINESGKAAESVQIGGGGKGKKKGMPAKNLMAERRRRKKLNDRLYMLRSVVPKISKMDRASILGDAIDYLKELLQRINDLHNELESTPPGSLPPTSSSFHPLTPTPQTLSCRVKEELCPSSLPSP
notes: SCREAM (SCRM, ICE1), Arabidopsis thaliana, At3G26744, residues 1-404 (lacks the C-terminal ACTL domain); Used for ITC; the methods tell thrombin cleavage of the GST-fused proteins in general, not for ITC by name; also called SCRM1ΔC; source: E. coli BL21, purified (glutathione resin, thrombin, Superdex-200); not shown: GST, N-terminal, cleaved
B3: FAMA (ΔNFAMA) (domain or fragment)
chain: ESQRMTHIAVERNRRKQMNEHLRVLRSLMPGSYVQRGDQASIIGGAIEFVRELEQLLQCLESQKRRRILGETGRDMTTTTTSSSSPITTVANQAQPLIITGNVTELEGGGGLREETAENKSCLADVEVKLLGFDAMIKILSRRRPGQLIKTIAALEDLHLSILHTNITTMEQTVLYSFNVKITSETRFTAEDIASSIQQIFSFIHANTNISGSSNLGNIVFT
modifications: Limits not printed. Start set by analogy with the printed ΔNSPCH 98-364 (one residue before the annotated bHLH). Runs to the native C-terminus. Tag or fusion carrier omitted.

Columns and labels:
GST-fused SCRM (1-494) [1] = target: T1, GST-fused SCRM (1-494); assay: BLI; as a1, samples incubated 30 min with a 1:4 molar ratio of the TMM promoter fragment containing a mutant E-box (control); analyte 200-3.125 nM or 1000-25 nM; conditions: both partners purified
GST-fused SCRM (1-494) [2] = target: T1, GST-fused SCRM (1-494); assay: BLI; Octet Red96; anti-GST probes loaded with 500 nM GST-SCRM or GST-SCRMΔC; SPCH/MUTE/FAMA as analyte at 200-3.12 nM; 30 °C; 1x PBS, 0.02% Tween 20; no DNA; 1:1 model for kon, koff and KD, steady-state analysis for KD (SS); conditions: both partners purified
[3] = target: GST-fused SCRMΔC (1-404) (Arabidopsis thaliana) (UniProt Q9LSE2); assay: BLI; as a1, samples incubated 30 min with a 1:4 molar ratio of the TMM promoter fragment containing the E-box; analyte 200-3.125 nM or 1000-25 nM
GST-fused SCRM (1-494) [4] = target: T1, GST-fused SCRM (1-494); assay: as above; conditions: both partners purified
[5] = target: GST-fused SCRMΔC (1-404) (Arabidopsis thaliana) (UniProt Q9LSE2); assay: BLI; as a1, samples incubated 30 min with a 1:4 molar ratio of the synthetic E-box repeat fragment; analyte 200-3.125 nM or 1000-25 nM
GST-fused SCRM (1-494) [6] = target: T1, GST-fused SCRM (1-494); assay: as above; conditions: both partners purified
GST-fused SCRMΔC (1-404) [7] = target: T2, GST-fused SCRMΔC (1-404); assay: BLI; as a1, samples incubated 30 min with a 1:4 molar ratio of the TMM promoter fragment containing a mutant E-box (control); analyte 200-3.125 nM or 1000-25 nM; conditions: both partners purified
GST-fused SCRMΔC (1-404) [8] = target: T2, GST-fused SCRMΔC (1-404); assay: BLI; Octet Red96; anti-GST probes loaded with 500 nM GST-SCRM or GST-SCRMΔC; SPCH/MUTE/FAMA as analyte at 200-3.12 nM; 30 °C; 1x PBS, 0.02% Tween 20; no DNA; 1:1 model for kon, koff and KD, steady-state analysis for KD (SS); conditions: both partners purified
GST-fused SCRMΔC (1-404) [9] = target: T2, GST-fused SCRMΔC (1-404); assay: BLI; as a1, samples incubated 30 min with a 1:4 molar ratio of the TMM promoter fragment containing the E-box; analyte 200-3.125 nM or 1000-25 nM; conditions: both partners purified
[10] = target: B2; assay: ITC; Malvern PEAQ-ITC; 40 µM SCRM/SCRMΔC injected into 4 µM SPCH/MUTE/FAMA; PBS, pH 7.2 (Table S1; methods: pH 7.4); 25 °C; single binding site model; means of two experiments; conditions: both partners purified
GST-fused SCRMΔC (1-404) [11] = target: T2, GST-fused SCRMΔC (1-404); assay: BLI; as a1, samples incubated 30 min with a 1:4 molar ratio of the synthetic E-box repeat fragment; analyte 200-3.125 nM or 1000-25 nM; conditions: both partners purified
SPCH (ΔNSPCH, 98-364) = target: B1; assay: ITC; Malvern PEAQ-ITC; 40 µM SCRM/SCRMΔC injected into 4 µM SPCH/MUTE/FAMA; PBS, pH 7.2 (Table S1; methods: pH 7.4); 25 °C; single binding site model; means of two experiments; conditions: both partners purified
FAMA (ΔNFAMA) = target: B3; assay: as above; conditions: both partners purified

Binder | Kd (GST-fused SCRM (1-494) [1]) [nM] | koff (GST-fused SCRM (1-494) [1]) [s⁻¹] | kon (GST-fused SCRM (1-494) [1]) [M⁻¹ s⁻¹] | Kd (GST-fused SCRM (1-494) [2]) [nM] | koff (GST-fused SCRM (1-494) [2]) [s⁻¹] | kon (GST-fused SCRM (1-494) [2]) [M⁻¹ s⁻¹] | Kd (GST-fused SCRM (1-494) [4]) [nM] | koff (GST-fused SCRM (1-494) [4]) [s⁻¹] | kon (GST-fused SCRM (1-494) [4]) [M⁻¹ s⁻¹] | Kd (GST-fused SCRM (1-494) [6]) [nM] | koff (GST-fused SCRM (1-494) [6]) [s⁻¹] | kon (GST-fused SCRM (1-494) [6]) [M⁻¹ s⁻¹] | Kd (GST-fused SCRMΔC (1-404) [7]) [nM] | koff (GST-fused SCRMΔC (1-404) [7]) [s⁻¹] | kon (GST-fused SCRMΔC (1-404) [7]) [M⁻¹ s⁻¹] | Kd (GST-fused SCRMΔC (1-404) [8]) [nM] | koff (GST-fused SCRMΔC (1-404) [8]) [s⁻¹] | kon (GST-fused SCRMΔC (1-404) [8]) [M⁻¹ s⁻¹] | Kd (GST-fused SCRMΔC (1-404) [9]) [nM] | koff (GST-fused SCRMΔC (1-404) [9]) [s⁻¹] | also measured
MUTE (1-202) (natural protein, Arabidopsis thaliana, UniProt Q9M8K6 1-202, looked up, MUTE, Arabidopsis thaliana, residues 1-202; MUTE (1-202) was made both as a GST fusion (pGEX-4T-1, thrombin-cleavable) and with an N-terminal His tag (pET28a); also called MUTE-HIS; MUTE-histag; source: E. coli BL21, purified (Ni-NTA or glutathione resin, Superdex-200)) MSHIAVERNRRRQMNEHLKSLRSLTPCFYIKRGDQASIIGGVIEFIKELQQLVQVLESKKRRKTLNRPSFPYDHQTIEPSSLGAATTRVPFSRIENVMTTSTFKEVGACCNSPHANVEAKISGSNVVLRVVSRRIVGQLVKIISVLEKLSFQVLHLNISSMEETVLYFFVVKIGLECHLSLEELTLEVQKSFVSDEVIVSTN | 11.1 ± 0.8 | 0.00023 | 20800 | 6.1 ± 0.5 | 0.000147 | 24200 | 7.3 ± 0.2 | 0.000286 | 39200 | 5.1 ± 0.3 | 0.000285 | 56200 |  |  |  |  |  |  |  |  | Kd [3]: 565 nM; koff [3]: 0.0016 s⁻¹; kon [3]: 2850 M⁻¹ s⁻¹; Kd [5]: 545 nM; koff [5]: 0.0017 s⁻¹; kon [5]: 3100 M⁻¹ s⁻¹
B1 | 6.8 ± 0.5 | 0.000144 | 21200 | 5.8 ± 0.5 | 0.000111 | 19200 | 3.9 ± 0.3 | 0.000153 | 39200 | 7.2 ± 0.4 | 0.000354 | 49200 | 78.2 ± 1.2 | 0.000183 | 2350 | 59.1 ± 1.3 | 0.00012 | 2050 | 49 ± 1.3 | 0.000208 | kon (GST-fused SCRMΔC (1-404) [9]): 4250 M⁻¹ s⁻¹; Kd [10]: 61.1 ± 4.2 nM; Kd (GST-fused SCRMΔC (1-404) [11]): 38.1 ± 1.9 nM; koff (GST-fused SCRMΔC (1-404) [11]): 0.000184 s⁻¹; kon (GST-fused SCRMΔC (1-404) [11]): 4850 M⁻¹ s⁻¹
B2 |  |  |  |  |  |  |  |  |  |  |  |  |  |  |  |  |  |  |  |  | stoichiometry N (SPCH (ΔNSPCH, 98-364)): 0.95; stoichiometry N (FAMA (ΔNFAMA)): 0.96
B3 | 15.5 ± 0.6 | 0.000282 | 18200 | 7.2 ± 0.5 | 0.000159 | 22200 | 9.2 ± 0.3 | 0.000395 | 43200 | 8.5 ± 0.7 | 0.000367 | 43200 | 85 ± 1.8 | 0.000221 | 2610 | 55.1 ± 1.3 | 0.00016 | 2910 | 68.3 ± 1.4 | 0.000263 | kon (GST-fused SCRMΔC (1-404) [9]): 3910 M⁻¹ s⁻¹; Kd [10]: 68.1 ± 5.2 nM; Kd (GST-fused SCRMΔC (1-404) [11]): 59.1 ± 1.3 nM; koff (GST-fused SCRMΔC (1-404) [11]): 0.00023 s⁻¹; kon (GST-fused SCRMΔC (1-404) [11]): 3910 M⁻¹ s⁻¹
